From US20240084276
Substitutions are numbered along the chain they refer to.

What was measured:
Experiment in all cases: cell_activity
[1] = test system: T1, MIT 25-26x.91 (synthetic construct); conditions: 500 ng mRNA, FlpIn CHO; 16% in repeat (FIG. 4)
T1 sequence: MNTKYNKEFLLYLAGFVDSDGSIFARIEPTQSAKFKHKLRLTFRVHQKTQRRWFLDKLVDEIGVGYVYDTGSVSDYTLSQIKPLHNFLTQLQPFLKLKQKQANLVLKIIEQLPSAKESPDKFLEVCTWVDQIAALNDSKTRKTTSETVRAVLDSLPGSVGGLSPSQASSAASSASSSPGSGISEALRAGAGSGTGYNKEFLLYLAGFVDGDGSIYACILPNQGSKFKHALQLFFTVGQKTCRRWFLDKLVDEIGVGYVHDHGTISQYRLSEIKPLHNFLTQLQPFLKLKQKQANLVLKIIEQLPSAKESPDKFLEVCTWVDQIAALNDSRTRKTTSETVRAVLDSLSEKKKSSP

[2] = test system: T2, MIT 25-26x.48 (synthetic construct); conditions: 500 ng mRNA, FlpIn CHO
T2 sequence: T1 sequence with S19A, Q80E, H259N, H261F, T263S, H276Y

[3] = test system: T3, MIT 25-26L.35 (synthetic construct); conditions: 500 ng mRNA, FlpIn CHO
T3 sequence: T1 sequence with S19A, H46W, T70E, D75S, Q80E, H259Q, T263R

MIT 25-26 wild-type site (m.3243A) showed an activity [1] of 20 % indels, an activity [2] of 44 % indels and an activity [3] of 2 % indels.
